# Assay results: patent US20020081638
# Test system: free histones (mixture of H1, H3, H2B, H2A and H4; Boehringer Mannheim)
substance,measurement,value
GST-SUV39H1(82-412) H320R,"in vitro HMTase assay with free histones, activity against the unmutated product",the latter mutation (H320R) resulted in an hyperactive enzyme with approximately 20-fold increased activity
